This is an account of results in PMC6582153.

Holding throughout (test): MST; 2-hep HMM with C-terminal eGFP (fluorescence followed) titrated with increasing concentrations of unlabeled proximal S2; 23 °C; 10 mM imidazole pH 7.5, 100 mM KCl, 1 mM EDTA, 2 mM MgCl2, 1 mM DTT, 500 mM ADP, 0.05% Tween; MST power 60; isotherms fitted with the Hill equation
The target in test [1] is R719W recombinant human β-cardiac myosin 2-hep HMM (UniProt P08590).
The target of test [2] is WT recombinant human β-cardiac myosin 2-hep HMM (UniProt P08590).
For test [3], the target named is D382Y recombinant human β-cardiac myosin 2-hep HMM (UniProt P08590).

For orientation: Kd means the constant that tells how readily two partners part at equilibrium. Take “proximal S2 (amino acids 839–968) of human β-cardiac myosin (from UniProt P12883 839-968) (domain or fragment)”: the Kd in test [1] turned out to be 58 µM; in test [2] it was 37 µM; in test [3] it was 45 µM.
